{
  "source": "the nanobody polyreactivity screen of Harvey et al. (2022)",
  "data": [
    {"test": "yeast display, Sf9 membrane polyspecificity reagent, FACS + sequencing; frameworks hold sequencing errors", "method_in_brief": "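Nanobodies came from a synthetic yeast display library in Saccharomyces cerevisiae BJ5465, induced with galactose for 36–48 hours and stained for 1 hour at 4 °C with 10% biotinylated, detergent-solubilized Sf9 membrane reagent. Cells were enriched on streptavidin microbeads and then FACS-sorted, with low and high (top ~1%) gates set on anti-HA fluorescence for expression and streptavidin fluorescence for reagent binding. Each polyreactivity label reflects the gate a clone came from. Genes were amplified by colony PCR, sequenced by MiSeq 2 × 250 and filtered by CDR length.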", "values": [
      {"sequence": "QVQLVESGGVLVQAGGSLRLSCAASGNIFDQNAMGWYRQAPGKERELVAAITRSGSTTYYADSVKGRFTISRDNAKNTVYLQMNSLNPEDTAVYYCAAKVYAYRTYKMYYWGQGTQVTVSS", "polyreactivity (PSR sort gate)": "high polyreactivity"},
      {"sequence": "QVQLVESGGVLVQAGGSLRLSCAASGRIFAYYTMGWYRQAPGKEREMVAAISLSGSSTYYADSVKGRFTISRDNAKNNVYLHMNSLKPEDTAVYYCNADSYAYYSWYDYWGQGTQVTVSS", "polyreactivity (PSR sort gate)": "low polyreactivity"},
      {"sequence": "QVQLVESGGVLVQAGGSLRLSCAASGRIFDYYAMGWYRKAPGKERELVAAITSGGTTTYYADSVKGRFTISRDNAKNTVYLQMKSLKPEDTAVYYCAKYPYHIYHTEGDYWGQATQVTVSS", "polyreactivity (PSR sort gate)": "low polyreactivity"},
      {"sequence": "QVQLVESGGVLVQAGGSLRLSCAASGRIFSIYGMGWYRQAPVKEREFVASITYSGGSTYNADSVKGRFTISRDTAKNTVYLQMKSLKPEDTAVYYCAKYVFSAYDYWGQGTQVTVSS", "polyreactivity (PSR sort gate)": "low polyreactivity"},
      {"sequence": "QVQLVESGGVLVQAGGSLRLSCAASGRIFSNYAMGWYRQAPGKEWELVATIRKGGGSTYYADSVKGRFTISRDNAKNTVYLQMNSLKPEDTAVYYCAADGSLQTRRFDYWGQGTQVTVSS", "polyreactivity (PSR sort gate)": "high polyreactivity"},
      {"sequence": "QVQLVESGGVLVQAGGSLRLSCAASGRIFSSNAMGWYRHAPGKESEFVADISWRTGSTYYADSVKGRFTISRDNAKNTVYLQMNSLKPEDTAVYYCKKRTGSYGYPYYYWGQGTQVTVSS", "polyreactivity (PSR sort gate)": "high polyreactivity"},
      {"sequence": "QVQLVESGGVLVQAGGSLRLSCAASGRIFTRNAMGWYRQAPGKERELVASITRGGSTYYADSVKGRFTISRDNAKITVYLQMNCLKAEDTALYYCAAVFYDRGQRYNYWGQGTQVTVSS", "polyreactivity (PSR sort gate)": "high polyreactivity"},
      {"sequence": "QVQLVESGGVLVQAGGSLRLSCAASGRTFGGNVMAWYRQAPGKERELVAAISYSGGSTHYADSVKGRFTNSRDNAKNTVYLQMNSLKPEDTAVYYCAKDGEVTGDYWGLGTQVTVSS", "polyreactivity (PSR sort gate)": "low polyreactivity"},
      {"sequence": "QVQLVESGGVLVQAGGSLRLSCAASGRTFRYYAMGWYRQAPGKERELVAAITVTVTSTFYADSVKGRFTISRDNAKNTVYLQMNSLKPEDTAVYYCAKVDRQSPGQYYYWGQGTQVTVSS", "polyreactivity (PSR sort gate)": "low polyreactivity"},
      {"sequence": "QVQLVESGGVLVQAGGSLRLSCAASGRTFWYNAMGWYRQAPGKEWELVAAISSTGGRTYYADSVKGRFTISRDNAKTTVYLQMNSLKPEDTAVYYCAARQLSSHYDYWGQGTQVTVSS", "polyreactivity (PSR sort gate)": "low polyreactivity"},
      {"sequence": "QVQLVESGGVLVQAGGSLRLSCAASGRTFYLYAMGWYRHAPGKERELVAAISWSDDTTYYADSVKGRFTISRDNAKNTVYLQRNSLKPEDTAVYYCAAEQEQVALYDYWGQGTQVTVSS", "polyreactivity (PSR sort gate)": "high polyreactivity"},
      {"sequence": "QVQLVESGGVLVQAGGSLRLSCAASGRTIWYYAMGWYRQAPGKERELVASITRSGGTTYADSVKGRFTISRDNAKNTVYLQMNSLKPEDTAVYYCAATRPRIPVYQNNYGYWGQGTQLTVSS", "polyreactivity (PSR sort gate)": "high polyreactivity"},
      {"sequence": "QVQLVESGGVLVQAGGSLRLSCAASGRTLGTYAMGWYRQAPGKERELVAAITHSGGTTYYADSVKGRFTISRDNAKNTVYLQMNSLKPEDTAVYYCAADARFRTVSPMDYWGQGTQVTVSS", "polyreactivity (PSR sort gate)": "low polyreactivity"},
      {"sequence": "QVQLVESGGVLVQAGGSLRLSCAASGRTYGTYAMGWYRQAPGKERELVAGINGSGGSTYYADSVKGRFTISRDNAKNTVFLQMNSLKPEDTAVYYCYKYGRRPYGLRGYWGEGTQVTVSS", "polyreactivity (PSR sort gate)": "high polyreactivity"},
      {"sequence": "QVQLVESGGVLVQAGGSLRLSCAASGSIFASNAMGWYRQAPGKEREFVAAISWSGTRTYYADSVKGRFTISRDTAKNTVYLQMNSLKPEDTAVYYCAALTVLRNDYWGLGTQVTVSS", "polyreactivity (PSR sort gate)": "low polyreactivity"},
      {"sequence": "QVQLVESGGVLVQAGGSLRLSCAASGSIFDHYAMGWYRQAPGKERELVAAITYSDGSTYYADSVKGRFTISRDNAKNTVFLQMNSLKPEDTAVFYCAAYPRGSQRYNYWGQGTHVTVSS", "polyreactivity (PSR sort gate)": "high polyreactivity"},
      {"sequence": "QVQLVESGGVLVQAGGSLRLSCAASGSIFEVNSMGWYRQAPGKERELVDTITYSGGSTYYADSVKGRFTLSRDNAKNNVYLQMNSLKPEDTAVYYCATDYVDWELYIYDYWGQGTQVTVSS", "polyreactivity (PSR sort gate)": "low polyreactivity"},
      {"sequence": "QVQLVESGGVLVQAGGSLRLSCAASGSIFGTYAMGWYRRAPGKERELVAAITSDGVDTYYADSVKGRFTISRDNAKITVYLQMNSLKPEDTAVYYGAAEYEGLYGYGYWGQGTQVTVSS", "polyreactivity (PSR sort gate)": "high polyreactivity"},
      {"sequence": "QVQLVESGGVLVQAGGSLRLSCAASGSIFSYNVMGWYRQAQGKEREFVAAITRSGGSTYYADSVKGRFTISRDNAKNTVYLQMNSLKPEDTAVYYCATAYYYTPFREYYYWGQGTQVTVSS", "polyreactivity (PSR sort gate)": "low polyreactivity"},
      {"sequence": "QVQLVESGGVLVQAGGSLRLSCAASGSIFYVNTMGWYRQAPGKDRELVADISSGDSTYYADSVKGRFTISRDNAKNTVYLQMNSLKPEDTAVFYCNADVYSWVSGKEGDYWGQGTQVTVSS", "polyreactivity (PSR sort gate)": "low polyreactivity"},
      {"sequence": "QVQLVESGGVLVQAGGSLRLSCAASGSILSNYAMGWYRQAPGKERELVASISSTAGSTYYADSVKGRFTISRDNCKNTVYLQMNSLKPEDTAVYYSIKVFGGGTYDFWGQGTQVTVSS", "polyreactivity (PSR sort gate)": "low polyreactivity"},
      {"sequence": "QVQLVESGGVLVQAGGSLRLSCAASGSTFEYNVMGWYRPAPGKERELVAAITTGASTNYADSVKGRFTISRDNAKNTVYLQMNCLKPEDTAVYYCAARYWRVRHGSVPAYSGYDYWGLGTQVTVSS", "polyreactivity (PSR sort gate)": "low polyreactivity"},
      {"sequence": "QVQLVESGGVLVQAGGSLRLSCAASGSTFGPNAMGWYRQAPGKERELVAAIRSNGGRTYYADSVKGRFTISRDNAKNTVYLQMNSLKPEDTAVYYCAAPHYPYDTPYGYWGQGTQVTVSS", "polyreactivity (PSR sort gate)": "low polyreactivity"},
      {"sequence": "QVQLVESGGVLVQAGGSLRLSCAASGSTFLDYAMGWYRQAPGKERELVAAITSGGSTYYADSVKGRFTISRDNAKNTVDLHMKSMIPEDTAVYYCAADSVTGNAPSLVGDIYYYWGQGTQVTVSS", "polyreactivity (PSR sort gate)": "low polyreactivity"},
      {"sequence": "QVQLVESGGVLVQAGGSLRLSCAASGSTFLGYAMGWYRQAPGKERELVAAISSGGSTNYADSVKGRFTLSRDNAKNTVYLQMNSLKPDDTAVYYCGARTRRFRYYYWGQGPQVTVSS", "polyreactivity (PSR sort gate)": "high polyreactivity"},
      {"sequence": "QVQLVESGGVLVQAGGSLRLSCAASGSTFRRYAMGWYRQAPGKERELVAAITTRGGSTYYADSVKGRFTISRDNAKNTVYLQMNSLKPEDTAVYYCARDYSTYLRTAGDYWGQGTQVTVSS", "polyreactivity (PSR sort gate)": "low polyreactivity"},
      {"sequence": "QVQLVESGGVLVQAGGSLRLSCAASGSTFSVNVMGWSRQAPGKERELVAAINSGGSTDYADSVKGRLTISRDNAKNTVYLQMNSLKPEYTAVYYCNAYDIVIYDYWGQGTQVTVSS", "polyreactivity (PSR sort gate)": "low polyreactivity"},
      {"sequence": "QVQLVESGGVLVQAGGSLRLSCAASGSTFSWYAMGWYRQAPGKERELFAGITRSDGSTYYADSVKGRFTNSRDNAKNNVYLQMNSLKPEDTAVYYCAADDYIIRYGTNVDYWGQGTQVTVSS", "polyreactivity (PSR sort gate)": "low polyreactivity"},
      {"sequence": "QVQLVESGGVLVQAGGSLRLSCAASGSTFTYNAMGWYRQAPGKEREFVAANSVGGGITYYADSVKGRFTISRDYAKNTVYLQMKSLKPEDTAVYYCAADGEYPHSEDFEYWGQGTQVTVSS", "polyreactivity (PSR sort gate)": "low polyreactivity"},
      {"sequence": "QVQLVESGGVLVQAGGSLRLSCAASGSTFVRNAMGWYRQAPGKEWELVAAITGTGDSTYYADSVKGRFTISRDNAKNTVYLQMNSLKPEDTAVYYCAANSDAYRYWYDYWGQGTQVTVSS", "polyreactivity (PSR sort gate)": "low polyreactivity"},
      {"sequence": "QVQLVESGGVLVQAGGSLRLSCAASGSTFYRYAMGWYRQAPGKERELVAANTRGSRTYYADSVKGRFTISRDNAKNTVYLQMNSLKPEDTAVYYCAAYRDYGSYGSWGQGTQVTVSS", "polyreactivity (PSR sort gate)": "high polyreactivity"},
      {"sequence": "QVQLVESGGVLVQAGGSLRLSCAASGYIFQTYAMGWYRPAPGKEREFVAAISFIGSSTRYADSVKGRFTISRDNAKNTVYLQMNSLKPEDTAVYYCNNDTITSTWTPYTSWFGYWGQGTQVTVSS", "polyreactivity (PSR sort gate)": "high polyreactivity"},
      {"sequence": "QVQLVESGGVLVQAGGSLRLSCAATGRIKDNVMGWYRQAPGKERELVAAITRSARRTYYADSVTGRFTISRDNAKNTVYLQMNSLKPEDTAVYYCAAQAERYGFEYWGQGTQVTVSS", "polyreactivity (PSR sort gate)": "low polyreactivity"},
      {"sequence": "QVQLVESGGVLVQAGGSLRLSCAATVFIFKGNAMGWYRQAPGKEREFVADISARGGSTYYADSVKGRFTISRDNAKNTVYLQMNTLKPEDTAVYYCAATTGLYTRYGYWGQGTQVTVSS", "polyreactivity (PSR sort gate)": "high polyreactivity"},
      {"sequence": "QVQLVESGGVLVQAGGSLRLSCPASGRIYDGYAMGWYRQAPGKERELVAAINSNDGTTYYADSVKGRFTISRDNAKNTVYLQMNSLKPEDTAVYYCAKVSYNAWSYGPQMDYWGQGTQVTVSS", "polyreactivity (PSR sort gate)": "low polyreactivity"},
      {"sequence": "QVQLVESGGVLVQAGGSLRLSSAAYGFIFAKYAMVWYIQAHGKERELVAGISESCGSTYYADSVKGRFTISRDNAKNTVYLQLNSLKPEDTAVYYCNADDTVYFIKAGDYWGQGTQGTVSS", "polyreactivity (PSR sort gate)": "high polyreactivity"},
      {"sequence": "QVQLVESGGVLVQAGVSLRLSCAASGRNFLWYVMGCYRQAPGKERELVAAISSGGRTYYADSVKGRFTSSRDNAKHTLYLQMNSLKPEDTAVYYCAAVRRYLKAAYGYWGQGTQVTVSS", "polyreactivity (PSR sort gate)": "low polyreactivity"},
      {"sequence": "QVQLVESGGVLVQAVGSLRLSCAASGRIFYPYVMGWYRPAPGKERELVASITSGGGTYYADSVKGRFTISRDNAKNTVYLQMNSLKPEDTAGYYCNALAIWSEDWDHWISYADDYSGQGTQVTVSS", "polyreactivity (PSR sort gate)": "low polyreactivity"},
      {"sequence": "QVQLVESGPGLVQAGGSLRLSCAASGRIFTANAMGWYRQAPGKERELVAAITTSDGTYYADSVKGRFTISRDNAKNTVYLQMYSLKPEVTAVYYCATDTATYPPAMDDWGQGTQVTVSS", "polyreactivity (PSR sort gate)": "low polyreactivity"},
      {"sequence": "QVQLVESGRALVQAGGSLRLSCAASGFTFWTNTMGWYIQAPGKERELVAAITSTGGTTYYADSVKGRFTISRDNAKNTVYLQMNSLKAEDTAVYYCAAELGGYVASYYYPGYDYWGQGTQVTVSS", "polyreactivity (PSR sort gate)": "low polyreactivity"},
      {"sequence": "QVQLVESGRGFVQAGGRLRLSCAASGRTFGRYTMGWYRQAPGKDRELVASISNTARTNYADSVKGRFTISRDNAKNTVYLQMNSLKPEDTAVYYCAATYIVRYGYWGQGTQVTVSS", "polyreactivity (PSR sort gate)": "low polyreactivity"},
      {"sequence": "QVQLVESGRGIVQAGGSLRLSCAASGIIFGGNAMVWYRQAPGKERELVARIRWGGGSTYYADSVKGRFTISRDNAKNTVYLQMNSLKPEDTAVYYCARTTSYLTSTRRYYYWGQGTQVTVSS", "polyreactivity (PSR sort gate)": "high polyreactivity"},
      {"sequence": "QVQLVESGRGIVQAGGSLRLSCAASGLSFSNYAMGWYRQAPGKERELVARITTSGGRTYYADSVKGRFTISRDNANNTEYLKMNSLKPEDTAVYYCAANNRRRPSYDYDSWGQGTQVTVSS", "polyreactivity (PSR sort gate)": "low polyreactivity"}
    ]}
  ]
}
